Data as given in PMC12101500, “Mechanism of D-type cyclin recognition by the AMBRA1 E3 ligase receptor” (Science Advances, 2025).
Where no end group is shown, it is not given here. [ ]: non-standard residue; d: D form. pT = C[C@@H](OP(=O)(O)O)[C@H](N)C(=O)O

Legend:
[1] = target: DDB1-AMBRA1^WD40 complex (human) (UniProt Q9C0C7); assay: ITC; peptide (100 μM) titrated into AMBRA1^WD40-DDB1 complex (10 μM); 25°C; 50 mM Hepes pH 7.4, 200 mM NaCl, 2 mM MgCl2, 1 mM TCEP; single-site binding model
DDB1-AMBRA1 WD40 = DDB1-AMBRA1 WD40 (Homo sapiens, UniProt Q16531); assay: ITC
[2] = target: T1, TSF–cyclin D1 (full-length) (human, UniProt P24385 1-295, phosphothreonine at 286 (found in the reconstituted complex by Western blotting and MS)); assay: cryo-EM structure; DDB1–AMBRA1^WD40–cyclin D1–CDK4EE complex co-expressed in Expi293F and purified (MBP beads, TEV, Strep-tactin, Superdex 200); 0.3 mg/ml; 3.55 Å; conditions: both partners purified
T1 construct: cyclin D1, human; also called Twin-Strep-FLAG–cyclin D1; source: Expi293F, co-transfected; in lysate (pull-downs) and purified in complexes (MBP or GST beads, TEV digestion, Strep-tactin, Superdex 200); not shown: Twin-Strep-FLAG (TSF), N-terminal, kept
T1 sequence (P24385 whole entry): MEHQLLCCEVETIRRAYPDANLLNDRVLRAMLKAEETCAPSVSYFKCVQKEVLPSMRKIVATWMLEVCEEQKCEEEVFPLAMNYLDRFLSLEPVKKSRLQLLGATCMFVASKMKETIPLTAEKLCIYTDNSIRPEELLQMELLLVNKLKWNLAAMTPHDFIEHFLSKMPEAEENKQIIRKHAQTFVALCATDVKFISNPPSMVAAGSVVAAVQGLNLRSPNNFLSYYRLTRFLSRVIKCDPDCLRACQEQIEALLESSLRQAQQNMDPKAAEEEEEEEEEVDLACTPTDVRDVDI

With “T286-phosphorylated cyclin D1 peptide (residues 284 to 295)” the Kd [1] was 210 nM.

B1: cyclin D1 284-295 (peptide)
chain: Ac-AC[pT]PTDVRDVDI
Work on B1 yielded a Kd (DDB1-AMBRA1 WD40) of ~200 nM.

B2: AMBRA1^WD40 (residues M1 to N204 directly fused to S853 to G1044), MBP removed (domain or fragment, human, UniProt Q9C0C7 1-204, looked up)
chain: MKVVPEKNAVRILWGRERGARAMGAQRLLQELVEDKTRWMKWEGKRVELPDSPRSTFLLAFSPDRTLLASTHVNHNIYITEVKTGKCVHSLIGHRRTPWCVTFHPTISGLIASGCLDGEVRIWDLHGGSESWFTDSNNAIASLAFHPTAQLLLIATANEIHFWDWSRREPFAVVKTASEMERVRLVRFDPLGHYLLTAIVNPSNSNIANTTYRLQWWDFTKFDLPEISNASVNVLVQNCKIYNDASCDISADGQLLAAFIPSSQRGFPDEGILAVYSLAPHNLGEMLYTKRFGPNAISVSLSPMGRYVMVGLASRRILLHPSTEHMVAQVFRLQQAHGGETSMRRVFNVLYPMPADQRRHVSINSARWLPEPGLGLAYGTNKGDLVICRPEALNSG
notes: AMBRA1, human, residues M1 to N204, directly fused to S853; AMBRA1, human, residues S853 to G1044; Same construct as m5, after TEV digestion; the gene was codon optimized; also called AMBRA1 WD40 domain; AMBRA1^WD40 WT; source: Expi293F, co-expressed, purified in complex (MBP beads, TEV digestion, Strep-tactin and/or Superdex 200); not shown: MBP, N-terminal, cleaved
B2: binds [2].
